Experimental findings from PMC4155688, “Mapping the Putative G Protein-coupled Receptor (GPCR) Docking Site on GPCR Kinase 2” (The Journal of Biological Chemistry, 2014) are described below.

First the molecules themselves.
B1: RlucII-GRK2 (wild type) [human] / α2AAR-GFP^2 [not stated] (parent)
chain 1: MADLEAVLADVSYLMAMEKSKATPAARASKKILLPEPSIRSVMQKYLEDRGEVTFEKIFSQKLGYLLFRDFCLNHLEEARPLVEFYEEIKKYEKLETEEERVARSREIFDSYIMKELLACSHPFSKSATEHVQGHLGKKQVPPDLFQPYIEEICQNLRGDVFQKFIESDKFTRFCQWKNVELNIHLTMNDFSVHRIIGRGGFGEVYGCRKADTGKMYAMKCLDKKRIKMKQGETLALNERIMLSLVSTGDCPFIVCMSYAFHTPDKLSFILDLMNGGDLHYHLSQHGVFSEADMRFYAAEIILGLEHMHNRFVVYRDLKPANILLDEHGHVRISDLGLACDFSKKKPHASVGTHGYMAPEVLQKGVAYDSSADWFSLGCMLFKLLRGHSPFRQHKTKDKHEIDRMTLTMAVELPDSFSPELRSLLEGLLQRDVNRRLGCLGRGAQEVKESPFFRSLDWQMVFLQKYPPPLIPPRGEVNAADAFDIGSFDEEDTKGIKLLDSDQELYRNFPLTISERWQQEVAETVFDTINAETDRLEARKKAKNKQLGHEEDYALGKDCIMHGYMSKMGNPFLTQWQRRYFYLFPNRLEWRGEGEAPQSLLTMEEIQSVEETQIKERKCLLLKIRGGKQFILQCDSDPELVQWKKELRDAYREAQQLVQRVPKMKNKPRSPVVELSKVPLVQRGSANGL
chain 2: MFRQEQPLAEGSFAPMGSLQPDAGNASWNGTEAPGGGARATPYSLQVTLTLVCLAGLLMLLTVFGNVLVIIAVFTSRALKAPQNLFLVSLASADILVATLVIPFSLANEVMGYWYFGKAWCEIYLALDVLFCTSSIVHLCAISLDRYWSITQAIEYNLKRTPRRIKAIIITVWVISAVISFPPLISIEKKGGGGGPQPAEPRCEINDQKWYVISSCIGSFFAPCLIMILVYVRIYQIAKRRTRVPPSRRGPDAVAAPPGGTERRPNGLGPERSAGPGGAEAEPLPTQLNGAPGEPAPAGPRDTDALDLEESSSSDHAERPPGPRRPERGPRGKGKARASQVKPGDSLPRRGPGATGIGTPAAGPGEERVGAAKASRWRGRQNREKRFTFVLAVVIGVFVVCWFPFFFTYTLTAVGCSVPRTLFKFFFWFGYCNSSLNPVIYTIFNHDFRRAFKKILCRGDRKRIV

The variants in the first experiment derive from B1. Nature of the experiment: BRET. The settings on record: with α2AAR-GFP^2; HEK293T cells; 100 μm NOR for 6 min; read off a plot. In general terms: In BRET a luciferase serves as donor, and the signal depends on an acceptor being close.
Take chain 1 D481A: the response is 0.049.
For the variant chain 1 M15A, the response is 0.027.
In the case of chain 1 D3A, the response was found to be 0.026.
On the same count and under the same terms, then chain 1 D10A, with 0.026; and chain 1 D10R, with 0.041.
Still for that read-out and setting: then chain 1 I485A, with 0.018; and chain 1 K220R, with 0.032; and chain 1 G475I, with 0.016.
Still for that read-out and setting: then chain 1 P473E, with 0.033; and chain 1 E18A, with 0.05; and chain 1 A482I, with 0.059.

Variants of B1 are the subject of another experiment. Nature of the experiment: BRET dose-response. The settings on record: with α2AAR-GFP^2; HEK293T cells; point at highest NOR concentration, log [NOR] = -3; read off a plot.
For the variant chain 1 K220R, the response was 0.031.
